# Reference: US20030207791A1, “Materials and methods relating to the treatment of leukaemias” (priority 2000, published 2003)
# B1: PML-RAR: leukaemia-associated chimeric transcription factor, fusion of PML and RAR (protein)
# chain: MEPAPARSPRPQQDPARPQEPTMPPPETPSEGRQPSPSPSPTERAPASEEEFQFLRCQQCQAEAKCPKLLPCLHTLCSGCLEASGMQCPICQAPWPLGADTPALDNVFFESLQRRLSVYRQIVDAQAVCTRCKESADFWCFECEQLLCAKCFEAHQWFLKHEARPLAELRNQSVREFLDGTRKTNNIFCSNPNHRTPTLTSIYCRGCSKPLCCSCALLDSSHSELKCDISAEIQQRQEELDAMTQALQEQDSAFGAVHAQMHAAVGQLGRARAETEELIRERVRQVVAHVRAQERELLEAVDARYQRDYEEMASRLGRLDAVLQRIRTGSALVQRMKCYASDQEVLDMHGFLRQALCRLRQEEPQSLQAAVRTDGFDEFKVRLQDLSSCITQGKDAAVSKKASPEAASTPRDPIDVDLPEEAERVKAQVQALGLAEAQPMAVVQSVPGAHPVPVYAFSIKGPSYGEDVSNTTTAQKRKCSQTQCPRKVIKMESEEGKEARLARSSPEQPRPSTSKAVSPPHLDGPPSPRSPVIGSEVFLPNSNHVASGAGEAIETQSSSSEEIVPSPPSPPPLPRIYKPCFVCQDKSSGYHYGVSACEGCKGFFRRSIQKNMVYTCHRDKNCIINKVTRNRCQYCRLQKCFEVGMSKESVRNDRNKKKKEVPKPECSESYTLTPEVGELIEKVRKAHQETFPALCQLGKYTTNNSSEQRVSLDIDLWDKFSELSTKCIIKTVEFAKQLPGFTTLTIADQITLLKAACLDILILRICTRYTPEQDTMTFSDGLTLNRTQMHNAGFGPLTDLVFAFANQLLPLEMDDAETGLLSAICLICGDRQDLEQPDRVDMLQEPLLEALKVYVRKRRPSRPHMFPKMLMKITDLRSISAKGAERVITLKMEIPGSMPPLIQEMLENSEGLDTLSGQPGGGGRDGGGLAPPPGSCSPSLSPSSNRSSPATHSP
# B2: p53-RAR: RAR fused C-terminally to the tetramerization domain present in p53 (protein)
# chain: GEYFTLQIRGRERFEMFRELNEALELKDAQAGMASNSSSCPTPGGGHLNGYPVPPYAFFFPPMLGGLSPPGALTTLQHQLPVSGYSTPSPATIETQSSSSEEIVPSPPSPPPLPRIYKPCFVCQDKSSGYHYGVSACEGCKGFFRRSIQKNMVYTCHRDKNCIINKVTRNRCQYCRLQKCFEVGMSKESVRNDRNKKKKEVPKPECSESYTLTPEVGELIEKVRKAHQETFPALCQLGKYTTNNSSEQRVSLDIDLWDKFSELSTKCIIKTVEFAKQLPGFTTLTIADQITLLKAACLDILILRICTRYTPEQDTMTFSDGLTLNRTQMHNAGFGPLTDLVFAFANQLLPLEMDDAETGLLSAICLICGDRQDLEQPDRVDMLQEPLLEALKVYVRKRRPSRPHMFPKMLMKITDLRSISAKGAERVITLKMEIPGSMPPLIQEMLENSEGLDTLSGQPGGGGRDGGGLAPPPGSCSPSLSPSSNRSSPATHSP
# Tests used:
# [1] = tested on: murine hematopoietic progenitors (lin-); experiment: In vitro differentiation of murine hematopoietic progenitor cells transduced with retroviral constructs; assay type: cell-based; details: for effect on differentiation of transduced progenitors: compared with control cells
# Experimental: FIG. 5. A heterologous oligomerization domain activates the transforming potential of RAR. (A-B) p53-RAR form oligomers. (A) Nuclear extracts from COS-1 cells transfected with expression vectors for p53-RAR or RAR were incubated with tritiated RA (10 nM), fractionated and analysed as described in FIG. 3A. Note that the low MW peak of RA-binding capacity (coinciding with RAR) in p53-RAR cells derives from expression of wild type RAR, starting from its own ATG-conserved in the p53-RAR expression vector (see below)-. (B) Fractions from gel filtration of in vitro translated, ^35-S labelled p53-RAR were analysed by SDS-PAGE, followed by autoradiography. Note that two products are generated in the reaction: full-length p53-RAR, fractionating in oligomeric complexes, and RAR, starting from the internal ATG site of RAR and fractionating as a monomer. (C-D) Effects of RAR chimeric proteins on differentiation of murine hematopoietic progenitors. Lin-cells were transduced with the indicated retroviral vectors and then sorted by FACS on the basis of their GFP positivity. In the case of ΔCC-PML-RAR, GFP+ cells were sorted in GFP^high or GFP^low expressors. After sorting, cells were either plated in differentiation medium in the absence or in the presence of RA (3 nM or 1 μM) (C), or analysed by Western blot (D). C, control, P-R, PML-RAR, ΔCC-P-R, ΔCC-PML-RAR, G-PR, GFP-PML-RAR, G-ΔCCPR, GFP-ΔCC-PML-RAR, G-p53R, GFP-p53-RAR. As described, RA delays myeloid differentiation of control cells, leading to a maximum 20-30% reduction in the number of Mac1 + cells (Purton et al., 1999). This effect is counter-acted by expression of PML-RAR and by high levels of ΔCC-PML-RAR. […]
# The capacity of p53-RAR to block differentiation was evaluated using primary hematopoietic precursors purified from murine bone marrow on the basis of the absence of surface differentiation antigens (lin-see methods). […] After 8-10 days, colonies were pooled and analysed for the expression of myeloid differentiation markers (Mac-1 and GR-1). […]
# GST-NCoR = target: T1, GST-NCoR (Mus musculus, UniProt Q60974); experiment: GST-NCoR pull-down assay with in vitro translated 35S labelled proteins; assay type: binding; details: increasing amounts of GST-NCoR
# T1 construct: made in house
# T1 sequence (Q60974 1782-2453): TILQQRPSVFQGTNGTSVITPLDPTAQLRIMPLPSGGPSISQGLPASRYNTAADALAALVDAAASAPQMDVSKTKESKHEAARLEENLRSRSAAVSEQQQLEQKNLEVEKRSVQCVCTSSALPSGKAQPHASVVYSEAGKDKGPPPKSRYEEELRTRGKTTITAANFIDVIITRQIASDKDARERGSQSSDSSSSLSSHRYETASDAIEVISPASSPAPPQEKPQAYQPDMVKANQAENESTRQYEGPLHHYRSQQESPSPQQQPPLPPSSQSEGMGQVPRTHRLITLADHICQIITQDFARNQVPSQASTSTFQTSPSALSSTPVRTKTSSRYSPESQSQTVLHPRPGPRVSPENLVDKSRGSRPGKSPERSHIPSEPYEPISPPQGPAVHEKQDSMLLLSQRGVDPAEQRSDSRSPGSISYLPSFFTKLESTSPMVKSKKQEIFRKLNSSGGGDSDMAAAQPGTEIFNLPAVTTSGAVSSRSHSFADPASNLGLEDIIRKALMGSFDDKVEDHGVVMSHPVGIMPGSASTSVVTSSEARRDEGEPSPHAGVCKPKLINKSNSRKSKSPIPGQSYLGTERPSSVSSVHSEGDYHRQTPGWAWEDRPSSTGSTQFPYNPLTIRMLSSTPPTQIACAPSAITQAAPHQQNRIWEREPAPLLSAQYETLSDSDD
# Experimental: FIG. 1. Enhanced recruitment of NCoR by PML-RAR is due to the coiled coil region of PML. Increasing amounts of GST -NCoR (from 150 ng to 10 μg) coupled to agarose beads were incubated with the indicated in vitro translated, ^35-S labelled proteins. On the left, a schematic representation of the in vitro translated products, with the tripartite motif of PML highlighted (R, RING finger; B, B boxes; CC, coiled coil). The input lanes are loaded with the same amounts used in the pull-down experiments.
# Recruitment of the NCoR-HDAC complex is crucial for the transforming potential of PML-RAR. At low concentrations of RA (1-100 nM), the stability of the PML-RAR-NCoR complex is higher than that of the RAR-NCoR complex (Grignani et al., 1998; He et al., 1998; Lin et al., 1998). […] Pull-down assays were performed by incubation of in vitro translated, ^35S labelled PML-RAR or RAR with GST-NCoR coupled to agarose beads.
# GST-NCoR (1782-2453) or GST-NCoR (RDIII) purification and in vitro interaction experiments were performed as described, incubating the indicated amounts of GST-NCoR attached to a constant amount of glutathione-agarose beads in the presence of the appropriate ^35-S labelled, in vitro translated proteins(Gelmetti et al., 1998; Grignani et al., 1998; Zamir et al., 1996). The input lanes represent 100% of the total. Coimmunoprecipitation experiments were performed as described(Gelmetti et al., 1998), using extracts from transiently transfected COS-1 cells, or in vitro translated products.
Molecule,"differentiation block ([1]; Mac-1, 8-10 days in methylcellulose)",effect on differentiation of transduced progenitors [1],binding to GST-NCoR (GST-NCoR)
B1,about 50%,strong reduction in their capacity to differentiate,bound specifically to the beads even at the lowest amounts of GST-NCoR tested
B2,,strong decrease in the number of Mac1+ and GR1+ cells,bound NCoR even at the lowest amounts of GST-NCoR tested
